Results: paper PMC8139597

Biological target: GFP11(×7)-actin (actin fused to a seven-copy array of GFP11)
Experiment: split reporter

| Substance | fold brightness of the GFP channel versus GFP11(×1)-actin |
| --- | --- |
| FluoSTEP-AKAR (R-G1–10–FluoSTEP-AKAR; mRuby2-FHA1-PKAsub-GFP1–10) | > 5 fold |
| FluoSTEP-ICUE (mRuby2-Epac1(149 to 881)-GFP1–10) | 3.6 fold |
